{"source": "the Human Domainome abundance scans (Beltran et al. 2025)", "parents": {"B1": {"name": "PDZ and LIM domain protein 2, residues 284 to 339; numbered along this chain, Q96JY6 (parent)", "chain": "HTCEKCSTSIANQAVRIQEGRYRHPGCYTCADCGLNLKMRGHFWVGDELYCEKHAR"}}, "note": "± gives the uncertainty stated by the source."}
{"variants_of": "B1", "test": "abundance fitness (aPCA) (normalised: wild type 0, dead -1); higher = more abundant; growth selection in yeast, the domain comes from the species named", "details": "Homo sapiens"}
{"variant": "HTCEKCSTSIANQAVRIQEGRYRHPGCYTCFDCGLNLKMRGHFWVGDELYCEKHAR", "note": "[A31F]", "abundance fitness": "0.039 ± 0.13"}
{"variant": "HTCEKCSTSIANQAVRIQEGRYRHPGCYTCTDCGLNLKMRGHFWVGDELYCEKHAR", "note": "[A31T]", "abundance fitness": "-0.099 ± 0.095"}
{"variant": "HTCEKCSTSIANQAVRIQEGRYRHPGCYVCADCGLNLKMRGHFWVGDELYCEKHAR", "note": "[T29V]", "abundance fitness": "-0.309 ± 0.076"}
{"variant": "HTCEKCSTSIANQAVQIQEGRYRHPGCYTCADCGLNLKMRGHFWVGDELYCEKHAR", "note": "[R16Q]", "abundance fitness": "0.308 ± 0.14"}
{"variant": "HTCEKCSTSIANQAQRIQEGRYRHPGCYTCADCGLNLKMRGHFWVGDELYCEKHAR", "note": "[V15Q]", "abundance fitness": "-0.115 ± 0.1"}
{"variant": "HTCEKCSTSIANQAFRIQEGRYRHPGCYTCADCGLNLKMRGHFWVGDELYCEKHAR", "note": "[V15F]", "abundance fitness": "-0.38 ± 0.21"}
{"variant": "HTCEKCGTSIANQAVRIQEGRYRHPGCYTCADCGLNLKMRGHFWVGDELYCEKHAR", "note": "[S7G]", "abundance fitness": "0.018 ± 0.056"}
{"variant": "HTCEKCSTSIANQAVRIQEGRYRHPGCYTCADCGTNLKMRGHFWVGDELYCEKHAR", "note": "[L35T]", "abundance fitness": "0.167 ± 0.11"}
{"variant": "HTCEKCSTSIANQAVRIQEGRYRHPGCYTCADCGMNLKMRGHFWVGDELYCEKHAR", "note": "[L35M]", "abundance fitness": "0.102 ± 0.12"}
{"variant": "HTCEKCSTSIANQAVRIQEGRYRHPGCYTCADCGHNLKMRGHFWVGDELYCEKHAR", "note": "[L35H]", "abundance fitness": "-0.015 ± 0.089"}
{"variant": "HTPEKCSTSIANQAVRIQEGRYRHPGCYTCADCGLNLKMRGHFWVGDELYCEKHAR", "note": "[C3P]", "abundance fitness": "-0.968 ± 0.15"}
{"variant": "HTCEKCSTSIANQAVRIQEQRYRHPGCYTCADCGLNLKMRGHFWVGDELYCEKHAR", "note": "[G20Q]", "abundance fitness": "-0.56 ± 0.22"}
{"variant": "HTCEKCSTSIANQAVRIQEWRYRHPGCYTCADCGLNLKMRGHFWVGDELYCEKHAR", "note": "[G20W]", "abundance fitness": "-0.497 ± 0.12"}
{"variant": "HTCEKCSTSIANQAVRIQEARYRHPGCYTCADCGLNLKMRGHFWVGDELYCEKHAR", "note": "[G20A]", "abundance fitness": "-0.251 ± 0.11"}
{"variant": "HTCEACSTSIANQAVRIQEGRYRHPGCYTCADCGLNLKMRGHFWVGDELYCEKHAR", "note": "[K5A]", "abundance fitness": "0.157 ± 0.11"}
{"variant": "HTCEKCSTSIANQAVRIQEGRYAHPGCYTCADCGLNLKMRGHFWVGDELYCEKHAR", "note": "[R23A]", "abundance fitness": "-0.108 ± 0.067"}
{"variant": "HTCEKCSTSIANQAVRIQEGRYGHPGCYTCADCGLNLKMRGHFWVGDELYCEKHAR", "note": "[R23G]", "abundance fitness": "-0.457 ± 0.059"}
{"variant": "HTCEKCSTSIANQAVRIQEGRYRHPGCYTCADCGLNLKMRGVFWVGDELYCEKHAR", "note": "[H42V]", "abundance fitness": "-0.064 ± 0.081"}
{"variant": "HTCEKTSTSIANQAVRIQEGRYRHPGCYTCADCGLNLKMRGHFWVGDELYCEKHAR", "note": "[C6T]", "abundance fitness": "-0.48 ± 0.17"}
{"variant": "HTCEKGSTSIANQAVRIQEGRYRHPGCYTCADCGLNLKMRGHFWVGDELYCEKHAR", "note": "[C6G]", "abundance fitness": "-0.437 ± 0.093"}
{"variant": "HTCEKCSTSIANQAVRIQEGRYRHPGCYTCADCGLNLKMRGHFWVGDELYCDKHAR", "note": "[E52D]", "abundance fitness": "0.029 ± 0.062"}
{"variant": "HTCEKCSTSRANQAVRIQEGRYRHPGCYTCADCGLNLKMRGHFWVGDELYCEKHAR", "note": "[I10R]", "abundance fitness": "-0.445 ± 0.075"}
{"variant": "HTCEKCSTSIANQAVRIQEGRYRHPGCYTCAHCGLNLKMRGHFWVGDELYCEKHAR", "note": "[D32H]", "abundance fitness": "0.027 ± 0.11"}
{"variant": "HACEKCSTSIANQAVRIQEGRYRHPGCYTCADCGLNLKMRGHFWVGDELYCEKHAR", "note": "[T2A]", "abundance fitness": "-0.578 ± 0.12"}
{"variant": "HVCEKCSTSIANQAVRIQEGRYRHPGCYTCADCGLNLKMRGHFWVGDELYCEKHAR", "note": "[T2V]", "abundance fitness": "-0.685 ± 0.13"}
{"variant": "HPCEKCSTSIANQAVRIQEGRYRHPGCYTCADCGLNLKMRGHFWVGDELYCEKHAR", "note": "[T2P]", "abundance fitness": "-0.66 ± 0.08"}
{"variant": "HTCEKCSTSIANQIVRIQEGRYRHPGCYTCADCGLNLKMRGHFWVGDELYCEKHAR", "note": "[A14I]", "abundance fitness": "-0.07 ± 0.099"}
{"variant": "HTCEKCSTSIANQEVRIQEGRYRHPGCYTCADCGLNLKMRGHFWVGDELYCEKHAR", "note": "[A14E]", "abundance fitness": "0.143 ± 0.084"}
{"variant": "HTCEKCSTSIANQAVRIQSGRYRHPGCYTCADCGLNLKMRGHFWVGDELYCEKHAR", "note": "[E19S]", "abundance fitness": "-0.197 ± 0.098"}
{"variant": "HTCEKCSTSIANQAVRIQEGRYRHPGCYTCADCGLNYKMRGHFWVGDELYCEKHAR", "note": "[L37Y]", "abundance fitness": "-0.38 ± 0.17"}
{"variant": "HTCEKCSTSIANQAVRKQEGRYRHPGCYTCADCGLNLKMRGHFWVGDELYCEKHAR", "note": "[I17K]", "abundance fitness": "-0.427 ± 0.09"}
{"variant": "HTCEKCSTSIANQAVRIQEGRYRHPGCYTCADCGLNLKMRMHFWVGDELYCEKHAR", "note": "[G41M]", "abundance fitness": "-0.386 ± 0.09"}
{"variant": "HTCEKCSTSIANQAVRIQEGRYRHPGCYTCADCGLNLKMRDHFWVGDELYCEKHAR", "note": "[G41D]", "abundance fitness": "-0.088 ± 0.15"}
{"variant": "HTCEKCSTSIANQAVRIQEGRYRHPGCYTCADCGLNLKMRGHFWVGDELYAEKHAR", "note": "[C51A]", "abundance fitness": "-0.669 ± 0.16"}
{"variant": "HTCEKCSTSIANQAVRIQEGRYRHPGPYTCADCGLNLKMRGHFWVGDELYCEKHAR", "note": "[C27P]", "abundance fitness": "-0.425 ± 0.083"}
{"variant": "MTCEKCSTSIANQAVRIQEGRYRHPGCYTCADCGLNLKMRGHFWVGDELYCEKHAR", "note": "[H1M]", "abundance fitness": "0.268 ± 0.41"}
{"variant": "HTCEKCSTSIANQAVRIQEGRYRHPGCYTCADCGLNLKMRGHFWGGDELYCEKHAR", "note": "[V45G]", "abundance fitness": "0.107 ± 0.061"}
{"variant": "HTCEKCSTSIANQAVRIQEGRYRHPGCYTCADCGLNLKMRGHFWVGDELYCEKPAR", "note": "[H54P]", "abundance fitness": "-0.771 ± 0.18"}
{"variant": "HTCEKCSTSIANQAVRIQEGRYRHPGCYTCADCGLNLKMRGHFWVGDELYCEKGAR", "note": "[H54G]", "abundance fitness": "-0.317 ± 0.12"}
{"variant": "HTCEKCSTSIANQAVRIQEGRYRHNGCYTCADCGLNLKMRGHFWVGDELYCEKHAR", "note": "[P25N]", "abundance fitness": "-0.152 ± 0.14"}
{"variant": "HTCEKCSTSIANQAVRIQEGRYRHCGCYTCADCGLNLKMRGHFWVGDELYCEKHAR", "note": "[P25C]", "abundance fitness": "-0.546 ± 0.19"}
{"variant": "HTCEKCSTSIANQAVRIQEGRYRHPGCYTCADCGLNLKMRGHFWVGDELYCEVHAR", "note": "[K53V]", "abundance fitness": "0.007 ± 0.085"}
{"variant": "HTCEKCSTSIANQAVRIQEGRYRHPGCYTCADCGLNLKMRGHFQVGDELYCEKHAR", "note": "[W44Q]", "abundance fitness": "0.096 ± 0.13"}
{"variant": "HTCEKCSTSIANQAVRIQEGRYRHPGCYTCADCGLTLKMRGHFWVGDELYCEKHAR", "note": "[N36T]", "abundance fitness": "-0.125 ± 0.061"}
{"variant": "HTCEKCSTSIANQAVRIQEGRYRHPGCYTCADCGLNLKMCGHFWVGDELYCEKHAR", "note": "[R40C]", "abundance fitness": "0.221 ± 0.1"}
{"variant": "HTCEKCSTSIANQAVRIQEGRYRHPGCYTCADCGLNLKMRGHFWVGDELHCEKHAR", "note": "[Y50H]", "abundance fitness": "-0.083 ± 0.2"}
{"variant": "HTCEKCSTSIANQAVRIQEGRYRHPGCYTCADCGLNLKMRGHFWVGKELYCEKHAR", "note": "[D47K]", "abundance fitness": "0.052 ± 0.12"}
